Results as given in article PMC12098916, “Modelling POLG mutations in mice unravels a critical role of POLγΒ in regulating phenotypic severity”.
Each block holds one molecule with its values, some of them ahead of it.

How the values were obtained:
[1] = target: mouse DNA polymerase γ catalytic subunit, Y933C variant (mPolγA^Y933C) (mouse) (UniProt P54099); assay: thermal shift assay (thermofluor, SYPRO Orange); 0.5 µM PolγA with or without 0.75 µM PolγB (1:1.5), mixed on ice for 5 min; 20 mM Tris pH 8, 1 mM DTT, final NaCl 175 ± 50 mM; 4 to 95 °C in steps of 0.5 °C
[2] = target: mouse DNA polymerase γ catalytic subunit, wild type (mPolγA^WT) (mouse) (UniProt P54099); assay: as above
[3] = target: mouse PolγA (mPolγA WT);human POLγB (hPOLγB) (Mus musculus;Homo sapiens, UniProt P54099;Q9UHN1 26-1218;26-485, |); assay: cryo-EM; chimera mAhB, human-like E conformer; 10 mM Ca2+, 0.2 mM dCTP; EMSA: 25 mM Tris-HCl pH 8.0, ~30 mM NaCl, 1 mM TCEP, 0.1 mg/ml BSA, 10% glycerol, 10 uM ddCTP, 0.5 nM DNA, 6.6 nM POLγB dimer, ice 10 min then room temperature; settings: protein: recombinant;recombinant; tags: 6xHis;6xHis; copies: 1;2; 15 nt 5' overhang on strand 1; single mismatch at primer 3' end
[4] = target: T1, mouse PolγA (mPolγA WT);mouse PolγB (mPolγB) (Mus musculus;Mus musculus, UniProt P54099;Q9QZM2 26-1218;1-459, |); assay: cryo-EM; R (replication) conformer; 10 mM Ca2+, 0.2 mM dCTP; EMSA: 25 mM Tris-HCl pH 8.0, ~30 mM NaCl, 1 mM TCEP, 0.1 mg/ml BSA, 10% glycerol, 10 uM ddCTP, 0.5 nM DNA, 6.6 nM POLγB dimer, ice 10 min then room temperature; settings: protein: recombinant;recombinant; tags: 6xHis;6xHis; copies: 1;2; 15 nt 5' overhang on strand 1; single mismatch at primer 3' end
[5] = target: human POLγA (hPOLγA WT);human POLγB (hPOLγB) (Homo sapiens;Homo sapiens, UniProt P54098;Q9UHN1 26-1239;26-485, |); assay: EMSA; 10 uM ddCTP; value in Supp Fig 13f not in material; EMSA: 25 mM Tris-HCl pH 8.0, ~30 mM NaCl, 1 mM TCEP, 0.1 mg/ml BSA, 10% glycerol, 10 uM ddCTP, 0.5 nM DNA, 6.6 nM POLγB dimer, ice 10 min then room temperature; settings: protein: recombinant;recombinant; tags: 6xHis;6xHis; copies: 1;2; label: 32P 5' on 21-mer; 21 bp, 15 nt 5' overhang on strand 1
[6] = target: T1, mouse PolγA (mPolγA WT);mouse PolγB …; assay: EMSA; 10 uM ddCTP; value in Supp Fig 13f not in material; marginally weaker than human; EMSA: 25 mM Tris-HCl pH 8.0, ~30 mM NaCl, 1 mM TCEP, 0.1 mg/ml BSA, 10% glycerol, 10 uM ddCTP, 0.5 nM DNA, 6.6 nM POLγB dimer, ice 10 min then room temperature; settings: protein: recombinant;recombinant; tags: 6xHis;6xHis; copies: 1;2; label: 32P 5' on 21-mer; 21 bp, 15 nt 5' overhang on strand 1

T1 sequence (P54099 26-1218, chain 1 of 2): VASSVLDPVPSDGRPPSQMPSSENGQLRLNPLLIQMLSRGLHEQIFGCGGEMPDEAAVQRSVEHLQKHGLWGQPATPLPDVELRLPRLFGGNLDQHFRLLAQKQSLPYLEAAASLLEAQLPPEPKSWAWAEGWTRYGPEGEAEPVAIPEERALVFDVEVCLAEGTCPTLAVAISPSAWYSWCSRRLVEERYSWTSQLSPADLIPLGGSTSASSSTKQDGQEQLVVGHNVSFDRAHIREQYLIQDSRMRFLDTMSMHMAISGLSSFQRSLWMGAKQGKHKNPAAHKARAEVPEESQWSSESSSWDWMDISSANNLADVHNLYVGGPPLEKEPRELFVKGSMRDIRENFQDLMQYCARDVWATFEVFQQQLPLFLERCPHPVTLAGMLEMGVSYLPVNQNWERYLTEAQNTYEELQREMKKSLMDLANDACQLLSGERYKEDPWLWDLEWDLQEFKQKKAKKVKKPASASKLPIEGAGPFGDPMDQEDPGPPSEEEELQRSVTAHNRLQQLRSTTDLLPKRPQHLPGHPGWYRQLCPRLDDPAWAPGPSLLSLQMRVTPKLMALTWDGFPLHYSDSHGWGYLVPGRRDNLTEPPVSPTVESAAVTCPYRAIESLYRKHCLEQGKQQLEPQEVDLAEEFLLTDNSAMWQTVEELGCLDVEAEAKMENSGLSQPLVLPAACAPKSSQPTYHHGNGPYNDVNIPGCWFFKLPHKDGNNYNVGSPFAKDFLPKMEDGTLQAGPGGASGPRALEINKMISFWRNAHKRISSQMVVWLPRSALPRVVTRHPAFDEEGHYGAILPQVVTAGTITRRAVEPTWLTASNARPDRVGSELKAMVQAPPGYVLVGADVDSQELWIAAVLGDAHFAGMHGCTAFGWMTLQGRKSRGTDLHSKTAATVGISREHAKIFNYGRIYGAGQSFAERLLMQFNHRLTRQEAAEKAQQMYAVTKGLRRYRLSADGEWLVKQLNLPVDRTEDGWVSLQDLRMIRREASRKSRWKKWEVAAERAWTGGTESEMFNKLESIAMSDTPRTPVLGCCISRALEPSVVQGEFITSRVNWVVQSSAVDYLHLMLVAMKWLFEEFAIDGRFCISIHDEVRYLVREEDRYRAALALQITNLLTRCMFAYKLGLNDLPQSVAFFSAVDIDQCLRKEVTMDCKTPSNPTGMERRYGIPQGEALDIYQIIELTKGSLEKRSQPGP
T1 sequence (Q9QZM2 whole entry, chain 2 of 2): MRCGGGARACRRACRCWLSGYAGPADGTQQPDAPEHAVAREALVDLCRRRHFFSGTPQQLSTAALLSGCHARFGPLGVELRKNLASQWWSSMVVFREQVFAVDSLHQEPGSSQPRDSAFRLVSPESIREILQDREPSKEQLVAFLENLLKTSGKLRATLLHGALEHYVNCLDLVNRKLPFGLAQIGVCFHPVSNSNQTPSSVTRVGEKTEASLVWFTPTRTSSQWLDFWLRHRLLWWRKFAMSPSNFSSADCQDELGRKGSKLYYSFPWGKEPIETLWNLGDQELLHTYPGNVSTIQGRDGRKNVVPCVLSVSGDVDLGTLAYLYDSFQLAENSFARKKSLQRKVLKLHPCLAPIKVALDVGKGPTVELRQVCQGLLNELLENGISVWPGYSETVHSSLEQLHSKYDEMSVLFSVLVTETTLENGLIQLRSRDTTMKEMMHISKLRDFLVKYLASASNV
mouse DNA polymerase γ catalytic subunit, Y933C variant (mPolγA^Y933C) (mouse), sequence (P54099 whole entry Y934C): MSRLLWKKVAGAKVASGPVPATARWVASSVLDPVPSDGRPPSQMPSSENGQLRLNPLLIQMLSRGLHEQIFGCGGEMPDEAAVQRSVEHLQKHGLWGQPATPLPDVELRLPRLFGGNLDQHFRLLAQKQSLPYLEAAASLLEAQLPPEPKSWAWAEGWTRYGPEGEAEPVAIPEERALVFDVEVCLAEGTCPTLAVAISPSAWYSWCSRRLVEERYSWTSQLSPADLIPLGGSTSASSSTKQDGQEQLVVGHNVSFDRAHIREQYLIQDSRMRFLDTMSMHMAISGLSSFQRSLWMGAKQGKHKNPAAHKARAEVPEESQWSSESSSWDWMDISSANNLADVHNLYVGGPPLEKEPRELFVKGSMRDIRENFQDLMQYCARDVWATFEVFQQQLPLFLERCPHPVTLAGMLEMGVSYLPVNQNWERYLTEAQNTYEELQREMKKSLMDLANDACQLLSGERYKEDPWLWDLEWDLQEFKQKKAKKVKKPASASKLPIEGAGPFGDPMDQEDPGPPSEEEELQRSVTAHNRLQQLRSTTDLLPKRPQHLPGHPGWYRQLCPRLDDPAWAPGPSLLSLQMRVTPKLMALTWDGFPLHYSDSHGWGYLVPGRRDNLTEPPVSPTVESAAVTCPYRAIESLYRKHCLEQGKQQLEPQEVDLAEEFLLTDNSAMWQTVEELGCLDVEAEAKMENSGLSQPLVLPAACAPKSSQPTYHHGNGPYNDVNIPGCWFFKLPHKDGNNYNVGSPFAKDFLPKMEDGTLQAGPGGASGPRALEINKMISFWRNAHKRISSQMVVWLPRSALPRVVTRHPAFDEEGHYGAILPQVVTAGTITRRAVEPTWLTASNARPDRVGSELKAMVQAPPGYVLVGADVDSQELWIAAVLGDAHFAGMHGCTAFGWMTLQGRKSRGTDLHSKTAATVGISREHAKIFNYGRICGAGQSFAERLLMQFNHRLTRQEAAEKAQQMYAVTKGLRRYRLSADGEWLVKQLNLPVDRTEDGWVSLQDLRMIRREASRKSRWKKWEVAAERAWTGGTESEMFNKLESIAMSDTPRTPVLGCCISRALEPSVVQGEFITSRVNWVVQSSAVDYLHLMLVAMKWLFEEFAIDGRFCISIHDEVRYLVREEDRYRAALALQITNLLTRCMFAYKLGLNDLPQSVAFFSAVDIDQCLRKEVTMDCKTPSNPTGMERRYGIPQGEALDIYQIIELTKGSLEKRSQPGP
mouse DNA polymerase γ catalytic subunit, wild type (mPolγA^WT) (mouse), sequence (P54099 whole entry): as the sequence (P54099 whole entry Y934C) above, with C934Y counted along it
human POLγA (hPOLγA WT);human POLγB (hPOLγB), sequence (P54098 26-1239, chain 1 of 2): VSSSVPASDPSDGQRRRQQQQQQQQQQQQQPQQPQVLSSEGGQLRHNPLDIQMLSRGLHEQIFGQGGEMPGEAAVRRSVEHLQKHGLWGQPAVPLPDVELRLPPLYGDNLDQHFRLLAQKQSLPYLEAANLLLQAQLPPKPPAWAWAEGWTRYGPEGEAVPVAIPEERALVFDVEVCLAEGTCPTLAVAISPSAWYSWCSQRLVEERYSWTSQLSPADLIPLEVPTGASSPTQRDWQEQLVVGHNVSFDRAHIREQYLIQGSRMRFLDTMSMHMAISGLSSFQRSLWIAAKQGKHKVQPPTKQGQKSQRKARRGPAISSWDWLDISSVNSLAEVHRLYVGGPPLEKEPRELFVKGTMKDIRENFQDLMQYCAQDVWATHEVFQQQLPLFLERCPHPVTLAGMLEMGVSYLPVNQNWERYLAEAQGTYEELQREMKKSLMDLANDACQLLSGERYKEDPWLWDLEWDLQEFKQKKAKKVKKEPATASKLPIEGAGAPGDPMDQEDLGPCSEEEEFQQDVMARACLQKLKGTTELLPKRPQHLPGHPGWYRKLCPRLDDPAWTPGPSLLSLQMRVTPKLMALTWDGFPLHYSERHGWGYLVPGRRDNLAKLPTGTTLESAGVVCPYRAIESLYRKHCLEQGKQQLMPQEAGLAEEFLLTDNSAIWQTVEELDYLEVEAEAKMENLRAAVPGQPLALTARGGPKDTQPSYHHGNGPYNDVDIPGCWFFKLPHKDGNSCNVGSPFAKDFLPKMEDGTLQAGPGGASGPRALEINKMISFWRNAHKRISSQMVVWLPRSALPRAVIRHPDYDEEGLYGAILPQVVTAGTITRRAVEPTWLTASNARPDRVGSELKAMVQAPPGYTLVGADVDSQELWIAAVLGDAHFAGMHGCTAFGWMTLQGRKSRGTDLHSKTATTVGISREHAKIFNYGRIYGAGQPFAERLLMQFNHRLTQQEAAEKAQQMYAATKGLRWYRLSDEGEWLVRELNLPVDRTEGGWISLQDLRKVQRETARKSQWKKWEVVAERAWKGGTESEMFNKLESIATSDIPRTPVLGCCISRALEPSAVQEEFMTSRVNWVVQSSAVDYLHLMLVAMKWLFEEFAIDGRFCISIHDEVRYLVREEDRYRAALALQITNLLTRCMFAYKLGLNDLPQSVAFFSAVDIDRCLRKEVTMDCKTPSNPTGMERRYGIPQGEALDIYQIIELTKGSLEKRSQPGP
human POLγA (hPOLγA WT);human POLγB (hPOLγB), sequence (Q9UHN1 26-485, chain 2 of 2): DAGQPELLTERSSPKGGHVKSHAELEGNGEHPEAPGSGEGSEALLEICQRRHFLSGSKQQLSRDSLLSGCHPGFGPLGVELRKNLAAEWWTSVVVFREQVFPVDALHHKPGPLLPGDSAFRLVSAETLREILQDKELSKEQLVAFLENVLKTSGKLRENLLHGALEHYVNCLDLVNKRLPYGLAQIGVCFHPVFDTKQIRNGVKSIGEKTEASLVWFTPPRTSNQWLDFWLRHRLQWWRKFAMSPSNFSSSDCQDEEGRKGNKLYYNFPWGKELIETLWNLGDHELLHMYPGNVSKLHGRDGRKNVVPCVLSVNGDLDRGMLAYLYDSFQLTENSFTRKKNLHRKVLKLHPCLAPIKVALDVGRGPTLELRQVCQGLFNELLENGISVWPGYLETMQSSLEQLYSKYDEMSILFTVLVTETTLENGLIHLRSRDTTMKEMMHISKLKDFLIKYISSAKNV
mouse PolγA (mPolγA WT);human POLγB (hPOLγB), sequence (P54099 26-1218, chain 1 of 2): as the sequence (P54099 26-1218, chain 1 of 2) above
mouse PolγA (mPolγA WT);human POLγB (hPOLγB), sequence (Q9UHN1 26-485, chain 2 of 2): as the sequence (Q9UHN1 26-485, chain 2 of 2) above

B1: cryo-EM primer-template 40/25 with 3' mismatch (dsDNA)
DNA 1: TTTTTTTTTTATCCGGGCTCCTCTAGACTCGACCGCATGC
DNA 2: GCATGCGGTCGAGTCTAGAGGAGCT
- binding result [3]: binds
- binding result [4]: binds

B2: EMSA primer-template 36/21 (dsDNA)
DNA 1: TTTTTTTTTTATCCGGGCTCCTCTAGACTCGACCGC
DNA 2: GCGGTCGAGTCTAGAGGAGCC
- binding result [5]: binds
- binding result [6]: binds

More lines, now with the values ahead:

- increase in Tm of PolγA in complex with PolγB [1]: 9 °C
Molecule: mouse DNA polymerase γ accessory subunit, wild type (mPolγB^WT) (natural protein)

- increase in Tm of PolγA in complex with PolγB [2]: 9 °C
Molecule: mouse DNA polymerase γ accessory subunit, wild type (mPolγB^WT)
